One experiment addresses His-tagged LC3B-T50A (human, UniProt Q9GZQ8 1-120, T50A). In words: BLI.
In the next experiment the target is His-tagged LC3B-T50E (human, UniProt Q9GZQ8 1-120, T50E). In words: BLI. (In general: In BLI a coated tip is dipped into the sample, and binding shifts an interference pattern.)
In another experiment the target is His-tagged LC3B-WT (human, UniProt Q9GZQ8 1-120). In words: BLI.
Experiment [1] deals with HA-tagged LC3B-T50A (phospho-deficient mutant) (UniProt Q9GZQ8 1-120, T50A). The experiment in a line: affinity purification with mass spectrometry.
The target of experiment [2] is HA-tagged LC3B-T50E (phospho-mimetic mutant) (UniProt Q9GZQ8 1-120, T50E). In words: affinity purification with mass spectrometry.

With GQGANTDYRPPDDAVFDIITDEELCQIQESGSSL [FYCO1 peptide (1265–1298 amino acids of the human protein)], the Kd with His-tagged LC3B-T50A is around 6 µM; with His-tagged LC3B-T50E, around 28 µM; in the experiment with His-tagged LC3B-WT, around 4.1 µM.

B1: FYCO1 (endogenous, human cells) (natural protein)
chain: MASTNAESQLQRIIRDLQDAVTELSKEFQEAGEPITDDSTSLHKFSYKLEYLLQFDQKEKATLLGNKKDYWDYFCACLAKVKGANDGIRFVKSISELRTSLGKGRAFIRYSLVHQRLADTLQQCFMNTKVTSDWYYARSPFLQPKLSSDIVGQLYELTEVQFDLASRGFDLDAAWPTFARRTLTTGSSAYLWKPPSRSSSMSSLVSSYLQTQEMVSNFDLNSPLNNEALEGFDEMRLELDQLEVREKQLRERMQQLDRENQELRAAVSQQGEQLQTERERGRTAAEDNVRLTCLVAELQKQWEVTQATQNTVKELQTCLQGLELGAAEKEEDYHTALRRLESMLQPLAQELEATRDSLDKKNQHLASFPGWLAMAQQKADTASDTKGRQEPIPSDAAQEMQELGEKLQALERERTKVEEVNRQQSAQLEQLVKELQLKEDARASLERLVKEMAPLQEELSGKGQEADQLWRRLQELLAHTSSWEEELAELRREKKQQQEEKELLEQEVRSLTRQLQFLETQLAQVSQHVSDLEEQKKQLIQDKDHLSQQVGMLERLAGPPGPELPVAGEKNEALVPVNSSLQEAWGKPEEEQRGLQEAQLDDTKVQEGSQEEELRQANRELEKELQNVVGRNQLLEGKLQALQADYQALQQRESAIQGSLASLEAEQASIRHLGDQMEASLLAVRKAKEAMKAQMAEKEAILQSKEGECQQLREEVEQCQQLAEARHRELRALESQCQQQTQLIEVLTAEKGQQGVGPPTDNEARELAAQLALSQAQLEVHQGEVQRLQAQVVDLQAKMRAALDDQDKVQSQLSMAEAVLREHKTLVQQLKEQNEALNRAHVQELLQCSEREGALQEERADEAQQREEELRALQEELSQAKCSSEEAQLEHAELQEQLHRANTDTAELGIQVCALTVEKERVEEALACAVQELQDAKEAASREREGLERQVAGLQQEKESLQEKLKAAKAAAGSLPGLQAQLAQAEQRAQSLQEAAHQELNTLKFQLSAEIMDYQSRLKNAGEECKSLRGQLEEQGRQLQAAEEAVEKLKATQADMGEKLSCTSNHLAECQAAMLRKDKEGAALREDLERTQKELEKATTKIQEYYNKLCQEVTNRERNDQKMLADLDDLNRTKKYLEERLIELLRDKDALWQKSDALEFQQKLSAEERWLGDTEANHCLDCKREFSWMVRRHHCRICGRIFCYYCCNNYVLSKHGGKKERCCRACFQKLSEGPGSPDSSGSGTSQGEPSPALSPASPGPQATGGQGANTDYRPPDDAVFDIITDEELCQIQESGSSLPETPTETDSLDPNAAEQDTTSTSLTPEDTEDMPVGQDSEICLLKSGELMIKVPLTVDEIASFGEGSRELFVRSSTYSLIPITVAEAGLTISWVFSSDPKSISFSVVFQEAEDTPLDQCKVLIPTTRCNSHKENIQGQLKVRTPGIYMLIFDNTFSRFVSKKVFYHLTVDRPVIYDGSDFL
With B1, the figures for the “fold change of binding against HA-LC3B-WT” value in experiment [1] and in experiment [2] were around 2 fold higher and around 5 fold lower, respectively.

As usually defined, the Kd is the equilibrium constant for the complex coming apart. Low values mean a tighter complex, high ones a looser complex.

These data come from publication PMC8439105 (Current biology : CB, 2021).
